Biological target: mitogen-activated protein kinase-activated protein kinase 2 (human MK2) (human, UniProt P49137 46-400, limits assumed)
Assay: cell-based or functional assay

Chain of mitogen-activated protein kinase-activated protein kinase 2 (human MK2) (P49137 46-400 limits assumed): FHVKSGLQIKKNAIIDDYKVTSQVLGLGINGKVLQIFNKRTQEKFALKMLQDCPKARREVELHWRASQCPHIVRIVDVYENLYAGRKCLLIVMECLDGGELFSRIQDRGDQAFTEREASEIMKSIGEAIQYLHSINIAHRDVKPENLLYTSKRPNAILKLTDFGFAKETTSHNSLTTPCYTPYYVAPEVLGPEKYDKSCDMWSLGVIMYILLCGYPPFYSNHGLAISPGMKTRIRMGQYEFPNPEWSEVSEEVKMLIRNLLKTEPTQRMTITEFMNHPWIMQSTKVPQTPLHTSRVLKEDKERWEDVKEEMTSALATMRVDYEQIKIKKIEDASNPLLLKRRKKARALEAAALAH

WLRRRIKAWLRRIKALNRQLGVAA
IC50 (radiometric kinase assay), fold lower than the therapeutic inhibitor peptide incorporating the PTD peptide … [SEQ ID NO: 5]: > 30 fold

Reference: US20100158968A1 (PURDUE RESEARCH FOUNDATION, published 2010)
